Results published in patent US8309523 (VIB VZW, dated 2012).

Legend:
[1] = molecular target: T1, p76 fragment of MALT1 (Avi-tagged expression construct) (human, UniProt Q9UDY8 150-824, Avi-tag biotinylated in vivo by co-expressed BirA); test: bio-IP from HEK293T cells, anti-TRAF6 immunoblot
T1 construct: domain: p76 cleavage fragment; Lacks the N-terminal death domain; also called MALT1 p76; 76 kDa C-terminal fragment
T1 sequence (looked up): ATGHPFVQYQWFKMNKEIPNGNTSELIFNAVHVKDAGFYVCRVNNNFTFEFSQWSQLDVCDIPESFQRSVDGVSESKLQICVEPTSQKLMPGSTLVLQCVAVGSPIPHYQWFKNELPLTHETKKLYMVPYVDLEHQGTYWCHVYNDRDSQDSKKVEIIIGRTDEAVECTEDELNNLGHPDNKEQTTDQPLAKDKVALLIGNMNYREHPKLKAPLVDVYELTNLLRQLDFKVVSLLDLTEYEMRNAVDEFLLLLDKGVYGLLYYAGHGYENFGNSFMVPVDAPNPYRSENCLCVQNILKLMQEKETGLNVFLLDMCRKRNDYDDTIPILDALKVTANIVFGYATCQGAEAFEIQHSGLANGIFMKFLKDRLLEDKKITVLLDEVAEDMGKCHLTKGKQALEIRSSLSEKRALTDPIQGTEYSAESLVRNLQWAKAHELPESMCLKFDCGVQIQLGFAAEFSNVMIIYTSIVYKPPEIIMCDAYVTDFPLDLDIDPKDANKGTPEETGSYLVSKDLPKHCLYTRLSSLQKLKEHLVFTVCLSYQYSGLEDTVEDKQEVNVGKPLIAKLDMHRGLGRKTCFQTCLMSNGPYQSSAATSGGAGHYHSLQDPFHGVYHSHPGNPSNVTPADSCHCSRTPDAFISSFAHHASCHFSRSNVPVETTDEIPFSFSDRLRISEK
From the text: (§1) FIG. 5: p76 activates NFκB via TRAF6. […] Panel B) TRAF6 mediates NFκB signaling by p76. Top: NFκB-reporter assays of HEK293T cells transiently expressing MALT1, p76 and mutants or MALT1-C. Bottom: MALT1, p76 or MALT1-C, transiently expressed in HEK293T cells, were purified via bio-IPs and immunoblotted with anti-MALT1 (to show equal expression), anti-TRAF6 and anti-BCL10. Panel C) p76 induces polyubiquitination of IKKγ. Immunoblot analysis of bio-IP and IKKγ-IP of 293T cells transfected with pcD-F-IKKγ and pcd-HA-Ub in combination with indicated Avi-tagged MALT1 constructs. Panel D) BCL10 is not involved in NFκB signaling by p76. NFκB reporter assays of HEK-293T cells transfected with siRNA duplexes against MALT1, BCL10 or GFP (as control) followed by transient transfection with p76. The expression levels were determined by immunoblot with anti-MALT1 and anti-BCL10. NFκB-dependent luciferase activity […] is shown as fold induction of vector-transfected cells and represents the mean+/−S.D. of three independent experiments.
(§2) NFκB activation by MALT1 requires TRAF6 binding via two distinct sites (19), which are both present in the p76 cleavage fragment. Mutation of one TRAF6 binding site, either E313A/E316A (T6Ig-m) or E806A (T6C-m), abolished the potential of p76 to activate NFκB signaling in 293T cells (FIG. 5, Panel B). […] Furthermore, NFκB activation by p76 in 293T cells was associated with increased polyubiquitination of IKKγ (FIG. 5, Panel C).

[2] = molecular target: T2, MALT1 (wild type, Flag- and Avi-tagged bio-construct) (human, UniProt Q9UDY8 1-824, Avi-tag biotinylated in vivo by co-expressed BirA); test: bio-IP from HEK293T cells, anti-TRAF6 immunoblot
T2 construct: also called paracaspase; bio-IP purified MALT1
T2 sequence (looked up): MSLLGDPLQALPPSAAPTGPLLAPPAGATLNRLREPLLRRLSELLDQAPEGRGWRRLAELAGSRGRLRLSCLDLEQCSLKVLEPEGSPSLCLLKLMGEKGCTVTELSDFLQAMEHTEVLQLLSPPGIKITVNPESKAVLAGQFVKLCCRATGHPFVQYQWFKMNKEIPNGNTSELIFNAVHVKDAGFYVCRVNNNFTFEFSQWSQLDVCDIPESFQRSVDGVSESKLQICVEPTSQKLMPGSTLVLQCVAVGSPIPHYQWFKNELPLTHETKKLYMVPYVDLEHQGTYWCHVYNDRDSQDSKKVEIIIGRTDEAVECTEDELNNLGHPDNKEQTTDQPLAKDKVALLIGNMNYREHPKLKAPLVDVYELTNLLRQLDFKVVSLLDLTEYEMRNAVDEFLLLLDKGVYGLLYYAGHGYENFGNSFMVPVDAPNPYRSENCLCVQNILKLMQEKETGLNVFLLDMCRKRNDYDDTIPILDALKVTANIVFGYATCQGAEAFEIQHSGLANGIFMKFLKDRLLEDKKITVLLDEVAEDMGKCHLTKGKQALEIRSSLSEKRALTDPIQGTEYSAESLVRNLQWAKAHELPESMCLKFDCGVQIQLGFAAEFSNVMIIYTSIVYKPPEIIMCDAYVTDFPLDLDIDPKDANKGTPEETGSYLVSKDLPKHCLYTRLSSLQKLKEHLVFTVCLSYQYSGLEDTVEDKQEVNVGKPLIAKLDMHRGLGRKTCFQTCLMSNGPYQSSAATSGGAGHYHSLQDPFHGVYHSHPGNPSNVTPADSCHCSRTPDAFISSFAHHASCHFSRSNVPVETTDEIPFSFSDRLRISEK
From the text: as §1, §2

binding result [1]: binds | binding result [2]: binds
B1: TRAF6 (other, UniProt Q9Y4K3 1-522, looked up)
chain: MSLLNCENSCGSSQSESDCCVAMASSCSAVTKDDSVGGTASTGNLSSSFMEEIQGYDVEFDPPLESKYECPICLMALREAVQTPCGHRFCKACIIKSIRDAGHKCPVDNEILLENQLFPDNFAKREILSLMVKCPNEGCLHKMELRHLEDHQAHCEFALMDCPQCQRPFQKFHINIHILKDCPRRQVSCDNCAASMAFEDKEIHDQNCPLANVICEYCNTILIREQMPNHYDLDCPTAPIPCTFSTFGCHEKMQRNHLARHLQENTQSHMRMLAQAVHSLSVIPDSGYISEVRNFQETIHQLEGRLVRQDHQIRELTAKMETQSMYVSELKRTIRTLEDKVAEIEAQQCNGIYIWKIGNFGMHLKCQEEEKPVVIHSPGFYTGKPGYKLCMRLHLQLPTAQRCANYISLFVHTMQGEYDSHLPWPFQGTIRLTILDQSEAPVRQNHEEIMDAKPELLAFQRPTIPRNPKGFGYVTFMHLEALRQRTFIKDDTLLVRCEVSTRFDMGSLRREGFQPRSTDAGV
notes: Co-precipitated from lysates of human cell lines
